From publication doi:10.1101/718155 (2019)

B1: FOP (1-48) peptide (peptide)
peptide: MAATAAAVVAEEDTELRDLLVQTLENSGVLNRIKAELRAAVFLALEEQ
B2: NCX1 (254-265) peptide (peptide)
peptide: RRLLFYKYVYKR
B3: S100B (natural protein)
chain: MSELEKAMVALIDVFHQYSGREGDKHKLKKSELKELINNELSHFLEEIKEQEVVDKVMETLDNDGDGECDFQEFMAFVAMVTTACHEFFEHE
B4: CapZ (265-276) peptide (peptide)
chain: TRTKIDWNKILS
B5: SIP (188-202) peptide (peptide)
peptide: SEGLMNVLKKIYEDG
B6: MDM4 (25-43) peptide (peptide)
peptide: NQVRPKLPLLKILHAAGAQ
B7: RSK1 (696-735) peptide (peptide)
peptide: GAMAATYSALNSSKPTPQLKPIESSILAQRRVRKLPSTTL
B8: TRPM4 (129-147) peptide (peptide)
peptide: VLQTWLQDLLRRGLVRAAQ
B9: NMIIA (1894-1937) peptide (peptide)
peptide: RKLQRELEDATETADAMNREVSSLKNKLRRGDLPFVVPRRMARK

Assays:
S100B [1] = biological target: B3; assay: FP; competitive
S100A3 [2] = assay: FP; competitive
S100A4 [3] = assay: FP; competitive
S100A6 [4] = assay: FP; competitive
S100P [5] = assay: FP; competitive
S100A5 [6] = assay: FP; competitive
S100A2 [7] = assay: FP; competitive
S100A1 [8] = assay: FP; competitive
S100A6 [9] = assay: ITC; 310 K
S100A3 [10] = assay: FP; direct
S100A12 = assay: FP; direct
S100A4 [11] = assay: FP; direct
S100A6 [12] = assay: FP; direct
S100P [13] = assay: FP; direct
S100A8 [14] = assay: FP; direct
S100G = assay: FP; direct
S100A13 = assay: FP; direct
S100A7 = assay: FP; direct
S100A11 [15] = assay: FP; direct
S100A14 = assay: FP; direct
S100Z = assay: FP; direct
S100A9 = assay: FP; direct
S100A5 [16] = assay: FP; direct
S100A2 [17] = assay: FP; direct
S100A15 = assay: FP; direct
S100A10 [18] = assay: FP; direct
S100A1 [19] = assay: FP; direct
S100B [20] = biological target: B3; assay: FP; direct
S100A1 [21] = assay: ITC; 310 K
RSK1-CTKD = assay: FP; competitive
MK2 = assay: FP; competitive
FOR20 = assay: FP; competitive
S100B [22] = biological target: B3; assay: ITC; 310 K; second site
S100B [23] = biological target: B3; assay: ITC; 310 K
S100A5 [24] = assay: ITC; 310 K
S100B [25] = biological target: B3; assay: ITC; 298 K
S100A8 [26] = assay: FP; competitive
S100A11 [27] = assay: FP; competitive
S100A10 [28] = assay: FP; competitive
S100A1 [29] = assay: ITC; 298 K

Row | Binder | Kd (S100B [1]) [µM] | Kd (S100A4 [3]) [µM] | Kd (S100A6 [4]) [µM] | Kd (S100P [5]) [µM] | Kd (S100A5 [6]) [µM] | Kd (S100A2 [7]) [µM] | Kd (S100A1 [8]) [µM] | Kd (S100A3 [10]) [µM] | Kd (S100A4 [11]) [µM] | Kd (S100A6 [12]) [µM] | Kd (S100P [13]) [µM] | Kd (S100A11 [15]) [µM] | Kd (S100A14) [µM] | Kd (S100A5 [16]) [µM] | Kd (S100A2 [17]) [µM] | Kd (S100A1 [19]) [µM] | Kd (S100B [20]) [µM] | further results
1 | B1 | 1.2 | 0.048 | 0.0056 | 0.066 | 0.56 | 0.081 | 0.35 |  |  |  |  |  |  |  |  |  |  | Kd (S100A3 [2]): 0.27 µM; Kd (S100A6 [9]): 0.088 µM
2 | B2 | > 200 |  |  |  | 5.2 |  | 2.6 | 25 | 15 | 27 | 4 | 52 | 71 | 4.6 | 5.5 | 2.6 | 7.7 | Kd (S100A12): 170 µM; Kd (S100A8 [14]): 56 µM; Kd (S100G): 24 µM; Kd (S100A13): 87 µM; Kd (S100A7): 30 µM; Kd (S100Z): 11 µM; Kd (S100A9): 20 µM; Kd (S100A15): 28 µM; Kd (S100A10 [18]): 53 µM; Kd (S100A1 [21]): 6.4 µM
3 | B3 |  |  |  |  |  |  |  |  |  |  |  |  |  |  |  |  |  | Kd (RSK1-CTKD): 1.2 µM; Kd (MK2): 3.2 µM; Kd (FOR20): 0.25 µM
4 | B4 | 1.8 |  |  | 4.1 | 5.4 |  | 5.2 |  |  |  | 11 |  |  | 4.7 |  | 8.9 | 2.3 | Kd (S100B [22]): 0.94 µM; Kd (S100B [23]): 3.9 µM
5 | B5 |  | 11 | 20 |  | 40 |  |  |  | 42 | 8.7 | 38 |  |  | 42 | 102 |  | > 200 | Kd (S100A5 [24]): 21 µM
6 | B6 | 0.15 |  |  |  | 65 | 53 | 35 |  |  |  |  |  |  | 61 | 49 | 91 | 0.2 | Kd (S100B [22]): 0.63 µM; Kd (S100B [23]): 0.71 µM
7 | B7 |  |  |  |  |  |  |  |  |  |  |  |  |  |  |  |  |  | Kd (S100B [25]): 12 µM
8 | B8 | > 200 | 35 | 8.4 |  | 2.3 | 1.1 |  | 0.91 | 5.9 | 1.4 | 0.93 | 2.4 | 12 | 0.6 | 1 | 0.38 | 16 | Kd (S100A8 [14]): 3.8 µM; Kd (S100A9): 21 µM; Kd (S100A10 [18]): 17 µM; Kd (S100A3 [2]): 3.4 µM; Kd (S100A8 [26]): 13 µM; Kd (S100A11 [27]): 106 µM; Kd (S100A10 [28]): 125 µM; Kd (S100A5 [24]): 1.4 µM
9 | B9 | 2.9 | 0.0088 | 0.21 | 0.14 | 2.9 | 0.013 | 0.004 | 5.5 | 0.026 | 0.58 | 0.99 | 49 | 98 | 5.8 | 0.057 | 0.033 | 4.7 | Kd (S100G): 21 µM; Kd (S100A7): 13.1 µM; Kd (S100A15): 17 µM; Kd (S100A1 [29]): 0.009 µM
